Test results as given in article PMC9352680, “A comprehensive thermodynamic model for RNA binding by the Saccharomyces cerevisiae Pumilio protein PUF4”.

T1: PUF4 RNA-binding domain (Saccharomyces cerevisiae, UniProt P25339 537-888)
T1 sequence: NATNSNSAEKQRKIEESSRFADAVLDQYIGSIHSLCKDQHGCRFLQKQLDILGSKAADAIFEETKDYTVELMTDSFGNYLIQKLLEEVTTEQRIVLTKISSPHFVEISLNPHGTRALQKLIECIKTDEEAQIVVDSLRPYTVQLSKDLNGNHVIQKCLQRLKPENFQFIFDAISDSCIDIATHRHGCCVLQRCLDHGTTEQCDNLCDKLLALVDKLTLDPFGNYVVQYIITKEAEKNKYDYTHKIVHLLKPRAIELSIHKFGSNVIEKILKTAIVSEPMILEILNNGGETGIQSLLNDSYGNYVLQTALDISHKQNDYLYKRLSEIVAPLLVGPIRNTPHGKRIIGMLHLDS


Biological target: T1, PUF4 RNA-binding domain
Test: Mg; RNA-MaP; 20 mM Na-HEPES pH 7.4, 30 mM KOAc, 0.75 mM MgCl2, 0.1% Tween-20, 5% glycerol, 0.1 mg/mL BSA, 2 mM DTT; 25 C; 0.0125-409.6 nM protein
Conditions: tags: N-His6-TEV cleaved; C-SNAP kept, Cy3B-labelled; label: tethered on chip by stalled RNA polymerase

Binder | Kd
UCUCUUUGUAAUAGUAUCUCUU (ssRNA) [Ib_S1_P5E.1_K5.1_C5.1_H5.1_A5.1_[T5A]_F5.1_[T8G]_T5.1] | 21.4 nM
UCUCUUUGCAUUAUUAUCUCUU (ssRNA) [Ia_S1_P5E.1_K5.1_C5.1_H5.1_[T3C]_A5.1_F5.1_T5.1] | 1250 nM
UCUCUUUGUACUAGUAUCUCUU (ssRNA) [Ib_S1_P5E.1_K5.1_C5.1_H5.1_A5.1_[T5C]_F5.1_[T8G]_T5.1] | 23.5 nM
UCUCUUUGUCUUAUUUUCUCUU (ssRNA) [Ib_S1_P5E.1_K5.1_C5.1_H5.1_[A4C]_A5.1_F5.1_[A10T]_T5.1] | 775 nM
Id_ii_S2_P4E.3_K4.2_C4.2_H4.2_A4.1_F4.1_T4.2_[G10A] (ssRNA) RNA: UUUGAUUAAUAUGAUAUCGUUCUUUCUCUUAUAUAUUAAUUUCUUUCUCGAUAUCAUAUUAAUCUUU | 9.82 nM
Id_ii_S2_P4E.4_K4.3_C4.2_[C-2A]_H4.3_A4.1_F4.1_T4.2_[G10T] (ssRNA) RNA: UUUGAUUAAUAUGAUAUCGUUCUUUCUAUACACUAUUAUUUUCUUUCUCGAUAUCAUAUUAAUCUUU | 12.3 nM
Id_ii_S2_P4E.4_K4.3_C4.2_[C-2T]_[T-1A]_H4.3_A4.1_F4.1_T4.2_[G10T]_[T11A] (ssRNA) RNA: UUUGAUUAAUAUGAUAUCGUUCUUUCUUAACACUAUUAUAUUCUUUCUCGAUAUCAUAUUAAUCUUU | 882 nM
Id_ii_S2_P4E.4_K4.3_C4.2_[C-2T]_[T-1C]_H4.3_A4.1_F4.1_T4.2_[G10A]_[T11A] (ssRNA) RNA: UUUGAUUAAUAUGAUAUCGUUCUUUCUUCACACUAUUAAAUUCUUUCUCGAUAUCAUAUUAAUCUUU | > 2300 nM
Id_ii_S2_P4E.4_K4.3_C4.2_[C-2A]_[T-1C]_H4.3_A4.1_F4.1_T4.2_[G10T]_[T11A] (ssRNA) RNA: UUUGAUUAAUAUGAUAUCGUUCUUUCUACACACUAUUAUAUUCUUUCUCGAUAUCAUAUUAAUCUUU | 592 nM
Id_ii_S2_P4E.4_K4.3_C4.2_[C-2T]_[T-1C]_H4.3_A4.1_F4.1_T4.2_[G10T]_[T11A] (ssRNA) RNA: UUUGAUUAAUAUGAUAUCGUUCUUUCUUCACACUAUUAUAUUCUUUCUCGAUAUCAUAUUAAUCUUU | 479 nM
Id_ii_S2_P4E.4_K4.3_C4.2_[C-2G]_H4.3_A4.1_F4.1_T4.2_[G10A]_[T11C] (ssRNA) RNA: UUUGAUUAAUAUGAUAUCGUUCUUUCUGUACACUAUUAACUUCUUUCUCGAUAUCAUAUUAAUCUUU | 0.5 nM
Id_ii_S2_P4E.4_K4.3_C4.2_[C-2G]_[T-1C]_H4.3_A4.1_F4.1_T4.2 (ssRNA) RNA: UUUGAUUAAUAUGAUAUCGUUCUUUCUGCACACUAUUAGUUUCUUUCUCGAUAUCAUAUUAAUCUUU | 448 nM
Id_ii_S2_P4E.4_K4.3_C4.2_[C-2T]_[T-1A]_H4.3_A4.1_F4.1_T4.2_[G10C]_[T11A] (ssRNA) RNA: UUUGAUUAAUAUGAUAUCGUUCUUUCUUAACACUAUUACAUUCUUUCUCGAUAUCAUAUUAAUCUUU | 2190 nM
Id_ii_S2_P4E.4_K4.3_C4.2_[C-2G]_H4.3_A4.1_F4.1_T4.2_[G10A]_[T11A] (ssRNA) RNA: UUUGAUUAAUAUGAUAUCGUUCUUUCUGUACACUAUUAAAUUCUUUCUCGAUAUCAUAUUAAUCUUU | 0.354 nM
Id_ii_S2_P4E.4_K4.3_C4.2_[C-2A]_[T-1A]_H4.3_A4.1_F4.1_T4.2_[G10T]_[T11C] (ssRNA) RNA: UUUGAUUAAUAUGAUAUCGUUCUUUCUAAACACUAUUAUCUUCUUUCUCGAUAUCAUAUUAAUCUUU | > 2300 nM
If_S2_P4E.3_K4.2_C4.2_H4.2_A4.1_F4.1_T4.2 (ssRNA) RNA: UUUGAUUAAUAUGAUAUCGUUCUUUCUCUUAUAUAUUAGUUUCUUUCUCGAUAUCAUAUUAAUCUUU | 10.4 nM
Id_ii_S2_P4E.4_K4.3_C4.2_[C-2T]_[T-1A]_H4.3_A4.1_F4.1_T4.2_[G10T] (ssRNA) RNA: UUUGAUUAAUAUGAUAUCGUUCUUUCUUAACACUAUUAUUUUCUUUCUCGAUAUCAUAUUAAUCUUU | 2160 nM
Id_ii_S2_P4E.4_K4.3_C4.2_[C-2G]_H4.3_A4.1_F4.1_T4.2_[G10A] (ssRNA) RNA: UUUGAUUAAUAUGAUAUCGUUCUUUCUGUACACUAUUAAUUUCUUUCUCGAUAUCAUAUUAAUCUUU | 0.412 nM
Id_ii_S2_P4E.4_K4.3_C4.2_[C-2A]_H4.3_A4.1_F4.1_T4.2_[G10C]_[T11G] (ssRNA) RNA: UUUGAUUAAUAUGAUAUCGUUCUUUCUAUACACUAUUACGUUCUUUCUCGAUAUCAUAUUAAUCUUU | 47.6 nM
Id_ii_S2_P4E.4_K4.3_C4.2_[C-2T]_H4.3_A4.1_F4.1_T4.2_[G10A]_[T11A] (ssRNA) RNA: UUUGAUUAAUAUGAUAUCGUUCUUUCUUUACACUAUUAAAUUCUUUCUCGAUAUCAUAUUAAUCUUU | 806 nM
Id_ii_S2_P4E.4_K4.3_C4.2_[C-2T]_[T-1A]_H4.3_A4.1_F4.1_T4.2_[G10A]_[T11A] (ssRNA) RNA: UUUGAUUAAUAUGAUAUCGUUCUUUCUUAACACUAUUAAAUUCUUUCUCGAUAUCAUAUUAAUCUUU | > 2300 nM
Id_ii_S2_P4E.4_K4.3_C4.2_[C-2A]_H4.3_A4.1_F4.1_T4.2_[G10T]_[T11C] (ssRNA) RNA: UUUGAUUAAUAUGAUAUCGUUCUUUCUAUACACUAUUAUCUUCUUUCUCGAUAUCAUAUUAAUCUUU | 10.3 nM
